Experimental data published in patent US20240116985A1 (published 2024).
Starred links: 1 amine or outer side, 2 acyl side, 3 side chain; linkers in the order of their positions; H or OH if unused. Positions of bridges follow the written chain, without caps; N, C: chain ends. Non-standard residues stand in square brackets, D forms with d. Primed or numbered codes have the meaning given here. *: point of attachment. PyrS2″ = (S)-3-amino-1-((pent-4-en-1-yloxy)carbonyl)pyrrolidine-3-carboxylic acid (stapling residue), C=CCCCOC(=O)N1CC[C@@](N[*:1])(C(=O)[*:2])C1; B5(4) = 2,2-bis(4-pentenyl)glycine = 2-amino-2-(pent-4-en-1-yl)hept-6-enoic acid (stitching residue), C=CCCCC(CCCC=C)(N[*:1])C(=O)[*:2]; B5 = 2-amino-2-(pent-4-en-1-yl)hept-6-enoic acid, C=CCCCC(CCCC=C)(N[*:1])C(=O)[*:2]; Phe(3-COOH) = N[C@@H](Cc1cccc(C(=O)O)c1)C(=O)O; 2F3MeF = Cc1cccc(C[C@H](N[*:1])C(=O)[*:2])c1F; Bta = N[C@@H](Cc1csc2ccccc12)C(=O)O; Lys(iPr) = CC(C)NCCCC[C@H](N)C(=O)O; hTyr = N[C@@H](CCc1ccc(O)cc1)C(=O)O; αAllylPro = C=CC[C@@]1(C(=O)O)CCCN1; Azidoacetyl = [N-]=[N+]=NCC(=O)*; tBuAla = CC(C)(C)C[C@H](N)C(=O)O; 3Thi = N[C@@H](Cc1ccsc1)C(=O)O; Cha = N[C@@H](CC1CCCCC1)C(=O)O; S8 = C=CCCCCCC[C@](C)(N)C(=O)O; Picolinoyl = O=C(c1ccccn1)*; PyrS2(4) = not defined here; hSer = N[C@@H](CCO)C(=O)O; PhAc = O=C(Cc1ccccc1)*

T1: full-length beta-Catenin (Uniprot ID P35222) (Homo sapiens (Human), UniProt P35222 1-781)
T1 construct: The assay text says 'full-length beta-Catenin (Uniprot ID P35222)'; also called bCat; B-Catenin
T1 sequence: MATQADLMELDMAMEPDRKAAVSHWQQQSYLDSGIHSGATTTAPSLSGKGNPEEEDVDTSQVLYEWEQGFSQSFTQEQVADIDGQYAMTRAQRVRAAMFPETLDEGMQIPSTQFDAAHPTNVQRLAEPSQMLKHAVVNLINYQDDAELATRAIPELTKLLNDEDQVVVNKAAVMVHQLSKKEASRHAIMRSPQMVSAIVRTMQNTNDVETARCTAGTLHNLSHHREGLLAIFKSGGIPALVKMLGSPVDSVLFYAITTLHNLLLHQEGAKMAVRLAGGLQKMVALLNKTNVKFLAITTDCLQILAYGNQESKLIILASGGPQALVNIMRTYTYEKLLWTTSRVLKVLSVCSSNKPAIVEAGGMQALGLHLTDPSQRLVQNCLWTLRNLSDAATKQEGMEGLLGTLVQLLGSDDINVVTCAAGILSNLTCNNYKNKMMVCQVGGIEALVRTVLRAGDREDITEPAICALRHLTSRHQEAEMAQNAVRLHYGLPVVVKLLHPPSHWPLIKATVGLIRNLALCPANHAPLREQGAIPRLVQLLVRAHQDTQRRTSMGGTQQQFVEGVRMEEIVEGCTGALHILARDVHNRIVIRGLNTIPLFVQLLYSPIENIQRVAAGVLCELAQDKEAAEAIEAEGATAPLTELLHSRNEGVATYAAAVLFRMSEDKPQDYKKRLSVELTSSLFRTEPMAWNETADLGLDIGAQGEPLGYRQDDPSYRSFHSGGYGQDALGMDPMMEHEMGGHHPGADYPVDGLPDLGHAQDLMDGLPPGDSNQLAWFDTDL

T2: Bcat-Halo (UniProt P35222 1-781)
T2 sequence (looked up): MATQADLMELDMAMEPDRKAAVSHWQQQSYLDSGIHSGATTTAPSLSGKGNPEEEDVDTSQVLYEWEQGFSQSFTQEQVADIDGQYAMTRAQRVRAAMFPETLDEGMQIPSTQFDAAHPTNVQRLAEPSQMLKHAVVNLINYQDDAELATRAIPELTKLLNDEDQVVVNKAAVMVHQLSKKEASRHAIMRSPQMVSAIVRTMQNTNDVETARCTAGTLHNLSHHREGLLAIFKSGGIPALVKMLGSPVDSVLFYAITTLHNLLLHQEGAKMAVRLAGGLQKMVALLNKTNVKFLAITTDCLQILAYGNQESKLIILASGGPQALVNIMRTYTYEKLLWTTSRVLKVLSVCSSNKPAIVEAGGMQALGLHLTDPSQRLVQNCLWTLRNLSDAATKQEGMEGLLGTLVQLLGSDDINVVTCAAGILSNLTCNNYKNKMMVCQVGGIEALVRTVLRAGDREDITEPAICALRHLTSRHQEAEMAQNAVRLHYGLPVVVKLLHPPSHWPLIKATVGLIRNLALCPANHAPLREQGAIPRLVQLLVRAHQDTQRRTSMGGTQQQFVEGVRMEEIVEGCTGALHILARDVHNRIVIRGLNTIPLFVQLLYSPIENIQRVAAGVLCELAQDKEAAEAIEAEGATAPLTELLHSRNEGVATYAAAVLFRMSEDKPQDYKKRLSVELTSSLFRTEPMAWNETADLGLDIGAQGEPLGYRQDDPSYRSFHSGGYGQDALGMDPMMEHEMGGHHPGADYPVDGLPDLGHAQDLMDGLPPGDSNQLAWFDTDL


Tests used:
[1] = target: T1, full-length beta-Catenin (Uniprot ID …); assay: fluorescence polarization competition; full-length beta-catenin, competitor 5FAM-TCF4(10-53) probe
Protocol: The plate was incubated protected from light for 60 minutes at 20° C. prior to read. Reads were performed on a CLARIOstar plate reader (BMG Labtech) in duplicate, and data were fitted to a 1:1 binding model with hill slope using an in-house script. All provided concentrations are final concentrations.

Bcat-Halo = target: T2, Bcat-Halo; assay: cell-based or functional assay

| EC50 [1] [µM] | NanoBRET Abs IC50 (Bcat-Halo) [µM] | Binder |
| --- | --- | --- |
| 0.112 | – | XDIXDEAAFQXFXQK (not fully specified; Ac-PL3-Asp-Ile-B5-Asp-Glu-Ala-Ala-Phe-Gln-S8-Phe-BztA-Gln-[AzAc]Lys-NH2; stapled PL3(1)-B5(4) and B5(4)-S8(11) by olefin metathesis, Stapled peptide composition) [I-596] |
| – | > 20 | Ac-[αAllylPro]N[Cha][B5(4)]DQ[Lys(iPr)]AF[Lys(iPr)][PyrS2″]F[Bta][hSer]-NH2 (staple 1-4, 4-11) [I-2102] |
| 0.076 | – | Ac-[αAllylPro]DI[B5]DEAAFQ[S8]F[Bta]QK(Azidoacetyl)-NH2 (staple 1-4, 4-11; not fully specified, Stapled peptide composition; same description as I-596, later eluting HPLC peak (staple isomer)) [I-597] |
| – | > 20 | Ac-[αAllylPro]D[tBuAla][B5(4)]DHAA[Phe(3-COOH)]N[PyrS2″][3Thi][Bta]Q-NH2 (staple 1-4, 4-11; also: earlier eluting HPLC isomer composition) [I-2118] |
| – | > 20 | Ac-[αAllylPro]D[tBuAla][B5(4)]D[Phe(3-COOH)]A[dA]FL[PyrS2″][2F3MeF][Bta]A-NH2 (staple 1-4, 4-11; also: earlier-eluting HPLC isomer composition) [I-2098] |
| – | > 20 | Ac-[αAllylPro]D[tBuAla][B5(4)]D[hTyr]AA[Phe(3-COOH)]N[PyrS2″][3Thi][Bta]Q-NH2 (staple 1-4, 4-11; also: earlier eluting HPLC isomer composition) [I-2114] |
| – | > 20 | Ac-[αAllylPro]N[Cha][B5(4)]DQ[Lys(iPr)]AFN[PyrS2″]F[Bta]K-NH2 (staple 1-4, 4-11) [I-2110] |
| – | 33.4 | Ac-[αAllylPro]D[tBuAla][B5(4)]D[hTyr]AA[Phe(3-COOH)][hSer][PyrS2″][3Thi][Bta]Q-NH2 (staple 1-4, 4-11; also: earlier eluting HPLC isomer composition) [I-2116] |
| – | > 20 | Ac-[αAllylPro]N[Cha][B5(4)]DQ[Lys(iPr)]AFN[PyrS2″]F[Bta]H-NH2 (staple 1-4, 4-11) [I-2109] |
| – | > 20 | Ac-[αAllylPro]D[tBuAla][B5(4)]DHAA[Phe(3-COOH)][hSer][PyrS2″][3Thi][Bta]Q-NH2 (staple 1-4, 4-11; also: later eluting HPLC isomer composition) [I-2121] |
| 0.057 | – | Ac-[αAllylPro]DI[B5]DEAAFQ[S8]F[Bta]K(Azidoacetyl)-NH2 (staple 1-4, 4-11, Stapled peptide composition) [I-595] |
| – | 22.3 | Ac-[αAllylPro]D[tBuAla][B5(4)]D[Phe(3-COOH)]A[dA]FL[PyrS2″][3Thi][Bta]A-NH2 (staple 1-4, 4-11; also: later-eluting HPLC isomer composition) [I-2097] |
| – | > 20 | Ac-[αAllylPro]N[Cha][B5(4)]DQ[Lys(iPr)]AFN[PyrS2″]F[Bta]N-NH2 (staple 1-4, 4-11) [I-2111] |

More lines, now with the values behind:

| Binder | EC50 [1] [µM] | NanoBRET Abs IC50 (Bcat-Halo) [µM] |
| --- | --- | --- |
| PhAc-[αAllylPro]DI[B5]DEAAFQ[S8]F[Bta]Q-NH2 (staple 1-4, 4-11, Stapled peptide composition; N-terminal cap Bnc) [I-600] | 0.796 | – |
| Ac-[αAllylPro]D[tBuAla][B5(4)]DHAA[Phe(3-COOH)]N[PyrS2″][3Thi][Bta]Q-NH2 (staple 1-4, 4-11; also: later eluting HPLC isomer composition) [I-2119] | – | > 20 |
| Ac-[αAllylPro]D[tBuAla][B5(4)]D[hTyr]AA[Phe(3-COOH)][hSer][PyrS2″][3Thi][Bta]Q-NH2 (staple 1-4, 4-11; also: later eluting HPLC isomer composition) [I-2117] | – | > 20 |
| Picolinoyl-[αAllylPro]DI[B5]DEAAFQ[S8]F[Bta]Q-NH2 (staple 1-4, 4-11, Stapled peptide composition; N-terminal cap Pic) [I-599] | 0.138 | – |
| Ac-[αAllylPro]D[tBuAla][B5(4)]DYAA[Phe(3-COOH)][hSer][PyrS2″][3Thi][Bta]Q-NH2 (staple 1-4, 4-11; also: earlier eluting HPLC isomer composition) [I-2124] | – | 38.9 |
| XDIXDEAAFQXFXQ (Bnc-PL3-Asp-Ile-B5-Asp-Glu-Ala-Ala-Phe-Gln-S8-Phe-BztA-Gln-NH2; stapled PL3(1)-B5(4) and B5(4)-S8(11) by olefin metathesis, Stapled peptide composition; N-terminal cap Bnc; same description as I-600, later eluting HPLC peak (staple isomer)) [I-601] | 0.419 | – |
| Ac-[αAllylPro]D[tBuAla][B5(4)]D[hTyr]AA[Phe(3-COOH)]N[PyrS2″][3Thi][Bta]Q-NH2 (staple 1-4, 4-11; also: later eluting HPLC isomer composition) [I-2115] | – | > 20 |
| Ac-[αAllylPro]D[tBuAla][B5(4)]DHAA[Phe(3-COOH)]L[PyrS2″][3Thi][Bta]Q-NH2 (staple 1-4, 4-11; also: earlier eluting HPLC isomer composition) [I-2122] | – | 34.4 |
| Ac-[αAllylPro]D[tBuAla][B5(4)]D[Phe(3-COOH)]A[dA]FL[PyrS2″][3Thi][Bta][dA]-NH2 (staple 1-4, 4-11) [I-2100] | – | > 20 |
| XDIXDEAAFQXFXQ (2PyPrpc-PL3-Asp-Ile-B5-Asp-Glu-Ala-Ala-Phe-Gln-S8-Phe-BztA-Gln-NH2; stapled PL3(1)-B5(4) and B5(4)-S8(11) by olefin metathesis, Stapled peptide composition; N-terminal cap 2PyPrpc) [I-602] | 3.15 | – |
| Ac-[αAllylPro]D[tBuAla][B5(4)]DHAA[Phe(3-COOH)][hSer][PyrS2(4)][3Thi][Bta]Q-NH2 (staple 1-4, 4-11; reading uncertain; also: earlier eluting HPLC isomer composition, printed as Ac-PL3-Asp-Npg-B5-Asp-His-Ala-Ala-3COOHF-Hse-PyrS2-3Thi-BztA-Gln-NH2) [I-2120] | – | 37.2 |
| Ac-[αAllylPro]DI[B5(4)]DEK(Azidoacetyl)AFQ[S8]F[Bta]Q-NH2 (staple 1-4, 4-11; not fully specified; printed as Ac-PL3-Asp-Ile-B5-Asp-Glu-[AzAc]Lys-Ala-Phe-Gln-S8-Phe-BztA-Gln-NH2, Stapled peptide composition) [I-591] | 0.064 | – |
| Ac-[αAllylPro]DI[B5]DEAAFK(Azidoacetyl)[S8]F[Bta]Q-NH2 (staple 1-4, 4-11, Stapled peptide composition) [I-594] | 0.087 | – |
| Ac-[αAllylPro]DI[B5]DEK(Azidoacetyl)AFQ[S8]F[Bta]Q-NH2 (staple 1-4, 4-11; not fully specified, Stapled peptide composition) [I-592] | 0.024 | – |
| Ac-[αAllylPro]DI[B5]DEAK(Azidoacetyl)FQ[S8]F[Bta]Q-NH2 (staple 1-4, 4-11, Stapled peptide composition) [I-593] | 0.068 | – |
| Ac-[αAllylPro]DI[B5]DQAAFQ[S8]F[Bta]Q-NH2 (staple 1-4, 4-11, Stapled peptide composition) [I-603] | 0.392 | – |
| Ac-[αAllylPro]D[tBuAla][B5(4)]DHAA[Phe(3-COOH)]L[PyrS2″][3Thi][Bta]Q-NH2 (staple 1-4, 4-11; also: later eluting HPLC isomer composition) [I-2123] | – | 26.9 |
| Ac-[αAllylPro]D[tBuAla][B5(4)]D[Phe(3-COOH)]A[dA]FL[PyrS2″][3Thi][Bta]A-NH2 (staple 1-4, 4-11; also: earlier-eluting HPLC isomer composition) [I-2096] | – | > 20 |
